Values joined by “and” are separate entries in the source; they are usually repeats but may differ in a detail not shown here. Equal entries are not always repeated.
What was measured:
[1] = target: HIV-1 envelope of gp160 clone AG-010.c11 (HIV-1); experiment: capture ELISA, plate 1, mAb 7.5 ug/ml
[2] = target: HIV-1 JRCSF envelope (HIV-1) (UniProt P20871); experiment: capture ELISA, plate 1, mAb 7.5 ug/ml
[3] = target: HIV-1 envelope clone G-011.c05 (multiclade gp160 clone panel) (HIV-1); experiment: capture ELISA, plate 1, mAb 7.5 ug/ml
[4] = target: HIV-1 envelope of gp160 clone B-Acute-010.c09 (HIV-1); experiment: capture ELISA, plate 1, mAb 7.5 ug/ml
[5] = target: HIV-1 envelope of gp160 clone B-Acute-008.c11 (HIV-1); experiment: capture ELISA, plate 1, mAb 7.5 ug/ml
[6] = target: HIV-1 envelope of gp160 clone AG-010.c14 (HIV-1); experiment: capture ELISA, plate 1, mAb 7.5 ug/ml
[7] = target: HIV-1 envelope of gp160 clone B-Acute-009-c08 (HIV-1); experiment: capture ELISA, plate 1, mAb 7.5 ug/ml
[8] = target: HIV-1 envelope of gp160 clone B-Chronic-014.c02 (HIV-1); experiment: capture ELISA, plate 1, mAb 7.5 ug/ml
[9] = target: HIV-1 envelope of gp160 clone B-Acute-010.c08 (HIV-1); experiment: capture ELISA, plate 1, mAb 7.5 ug/ml
[10] = target: HIV-1 envelope clone G-011.c02 (multiclade gp160 clone panel) (HIV-1); experiment: capture ELISA, plate 1, mAb 7.5 ug/ml
[11] = target: HIV-1 16055 envelope (HIV-1); experiment: capture ELISA, plate 1, mAb 7.5 ug/ml
[12] = target: HIV-1 JRFL envelope (HIV-1); experiment: capture ELISA, plate 1, mAb 7.5 ug/ml
[13] = target: HIV-1 envelope of gp160 clone AG-010.c11 (HIV-1); experiment: capture ELISA, plate 1, mAb 0.3 ug/ml
[14] = target: HIV-1 JRCSF envelope (HIV-1) (UniProt P20871); experiment: capture ELISA, plate 1, mAb 0.3 ug/ml
[15] = target: HIV-1 envelope clone G-011.c05 (multiclade gp160 clone panel) (HIV-1); experiment: capture ELISA, plate 1, mAb 0.3 ug/ml
[16] = target: HIV-1 envelope of gp160 clone B-Acute-010.c09 (HIV-1); experiment: capture ELISA, plate 1, mAb 0.3 ug/ml
[17] = target: HIV-1 envelope clone F1-002.c11 (multiclade gp160 clone panel) (HIV-1); experiment: capture ELISA, plate 1, mAb 0.3 ug/ml
[18] = target: HIV-1 envelope of gp160 clone B-Acute-008.c11 (HIV-1); experiment: capture ELISA, plate 1, mAb 0.3 ug/ml
[19] = target: HIV-1 envelope of gp160 clone AG-010.c14 (HIV-1); experiment: capture ELISA, plate 1, mAb 0.3 ug/ml
[20] = target: HIV-1 envelope clone BF-002.c08 (multiclade gp160 clone panel) (HIV-1); experiment: capture ELISA, plate 1, mAb 0.3 ug/ml
[21] = target: HIV-1 envelope of gp160 clone B-Acute-009-c08 (HIV-1); experiment: capture ELISA, plate 1, mAb 0.3 ug/ml
[22] = target: HIV-1 envelope clone BF-002.c05 (multiclade gp160 clone panel) (HIV-1); experiment: capture ELISA, plate 1, mAb 0.3 ug/ml
[23] = target: HIV-1 envelope of gp160 clone B-Chronic-014.c02 (HIV-1); experiment: capture ELISA, plate 1, mAb 0.3 ug/ml
[24] = target: HIV-1 envelope of gp160 clone B-Acute-010.c08 (HIV-1); experiment: capture ELISA, plate 1, mAb 0.3 ug/ml
[25] = target: HIV-1 envelope clone G-011.c02 (multiclade gp160 clone panel) (HIV-1); experiment: capture ELISA, plate 1, mAb 0.3 ug/ml
[26] = target: HIV-1 16055 envelope (HIV-1); experiment: capture ELISA, plate 1, mAb 0.3 ug/ml
[27] = target: HIV-1 envelope clone F1-002.c16 (multiclade gp160 clone panel) (HIV-1); experiment: capture ELISA, plate 1, mAb 0.3 ug/ml
[28] = target: HIV-1 JRFL envelope (HIV-1); experiment: capture ELISA, plate 1, mAb 0.3 ug/ml
[29] = target: BG505 envelope (gp120 monomer released from lysed pseudovirus) (HIV-1); experiment: antigen capture ELISA, mAb 7.5 ug/ml, plate 1
[30] = target: aMLV envelope (from lysed pseudovirus); experiment: antigen capture ELISA, mAb 7.5 ug/ml, plate 1
[31] = target: BG505 envelope (gp120 monomer released from lysed pseudovirus) (HIV-1); experiment: antigen capture ELISA, mAb 2.5 ug/ml, plate 1
[32] = target: aMLV envelope (from lysed pseudovirus); experiment: antigen capture ELISA, mAb 2.5 ug/ml, plate 1
[33] = target: HIV-1 envelope clone F1-002.c11 (multiclade gp160 clone panel) (HIV-1); experiment: capture ELISA, plate 2, mAb 0.8 ug/ml
[34] = target: HIV-1 envelope clone BF-002.c08 (multiclade gp160 clone panel) (HIV-1); experiment: capture ELISA, plate 2, mAb 0.8 ug/ml
[35] = target: HIV-1 envelope clone F1-002.c11 (multiclade gp160 clone panel) (HIV-1); experiment: capture ELISA, plate 1, mAb 7.5 ug/ml
[36] = target: HIV-1 envelope clone BF-002.c08 (multiclade gp160 clone panel) (HIV-1); experiment: capture ELISA, plate 1, mAb 7.5 ug/ml
[37] = target: HIV-1 envelope clone BF-002.c05 (multiclade gp160 clone panel) (HIV-1); experiment: capture ELISA, plate 1, mAb 7.5 ug/ml
[38] = target: HIV-1 envelope clone F1-002.c16 (multiclade gp160 clone panel) (HIV-1); experiment: capture ELISA, plate 1, mAb 7.5 ug/ml

With PGT145 (antibody) the ELISA OD [1] was 0.082 OD, the ELISA OD [2] was 0.071 OD and 0.084 OD and the ELISA OD [3] was 0.133 OD. It also gave an ELISA OD [4] of 0.084 OD, an ELISA OD [5] of 0.146 OD and an ELISA OD [6] of 0.07 OD. For the same substance, the ELISA OD [7] was 0.109 OD, the ELISA OD [8] was 0.106 OD and the ELISA OD [9] was 0.179 OD. The ELISA OD [10] was 0.129 OD, the ELISA OD [11] was 0.085 OD and 0.077 OD and the ELISA OD [12] was 0.076 OD and 0.075 OD. For the same substance, the ELISA OD [13] was 0.06 OD, the ELISA OD [14] was 0.083 OD and 0.072 OD and the ELISA OD [15] was 0.076 OD. The ELISA OD [16] was 0.065 OD, the ELISA OD [17] was 0.061 OD and the ELISA OD [18] was 0.099 OD. For the same substance, the ELISA OD [19] was 0.055 OD, the ELISA OD [20] was 0.065 OD and the ELISA OD [21] was 0.058 OD. The ELISA OD [22] was 0.106 OD, the ELISA OD [23] was 0.056 OD and the ELISA OD [24] was 0.081 OD. For the same substance, the ELISA OD [25] was 0.084 OD, the ELISA OD [26] was 0.057 OD and 0.069 OD and the ELISA OD [27] was 0.164 OD. The ELISA OD [28] was 0.063 OD and 0.071 OD, the ELISA OD [29] was 0.104 OD and the ELISA OD [30] was 0.098 OD and 0.082 OD. For the same substance, the ELISA OD [31] was 0.077 OD, the ELISA OD [32] was 0.062 OD and 0.068 OD and the ELISA OD [33] was 0.067 OD. It also gave an ELISA OD [34] of 0.057 OD.
With PG9 (antibody) the ELISA OD [1] was 0.891 OD, the ELISA OD [2] was 0.411 OD and 0.454 OD and the ELISA OD [3] was 0.37 OD. It also gave an ELISA OD [4] of 0.199 OD, an ELISA OD [5] of 0.363 OD and an ELISA OD [6] of 1.22 OD. The ELISA OD [7] was 0.115 OD, the ELISA OD [8] was 2.35 OD and the ELISA OD [9] was 0.547 OD. The ELISA OD [10] was 0.108 OD, the ELISA OD [11] was 0.519 OD and 0.367 OD and the ELISA OD [12] was 0.072 OD and 0.11 OD. The ELISA OD [13] was 0.278 OD, the ELISA OD [14] was 0.158 OD and 0.171 OD and the ELISA OD [15] was 0.104 OD. It also gave an ELISA OD [16] of 0.073 OD, an ELISA OD [18] of 0.114 OD and an ELISA OD [19] of 0.339 OD. It also gave an ELISA OD [21] of 0.062 OD, an ELISA OD [23] of 0.564 OD and an ELISA OD [24] of 0.089 OD. For the same substance, the ELISA OD [25] was 0.064 OD, the ELISA OD [26] was 0.184 OD and 0.188 OD and the ELISA OD [28] was 0.066 OD and 0.072 OD. The ELISA OD [29] was 0.428 OD, the ELISA OD [30] was 0.084 OD and 0.072 OD and the ELISA OD [31] was 0.346 OD. For the same substance, the ELISA OD [32] was 0.068 OD and 0.067 OD.
For PGV04 (antibody), the ELISA OD [1] was 0.184 OD, the ELISA OD [2] was 2.15 OD and 2.33 OD and the ELISA OD [3] was 0.451 OD. It also gave an ELISA OD [4] of 2.87 OD, an ELISA OD [35] of 0.28 OD and an ELISA OD [5] of 0.07 OD. The ELISA OD [6] was 0.293 OD, the ELISA OD [36] was 2.72 OD and the ELISA OD [7] was 0.237 OD. It also gave an ELISA OD [37] of 4 OD, an ELISA OD [8] of 4 OD and an ELISA OD [9] of 2.65 OD. It also gave an ELISA OD [10] of 0.865 OD, an ELISA OD [38] of 0.54 OD and an ELISA OD [13] of 0.07 OD. For the same substance, the ELISA OD [14] was 0.481 OD and 0.603 OD, the ELISA OD [15] was 0.08 OD and the ELISA OD [16] was 0.432 OD. The ELISA OD [17] was 0.082 OD, the ELISA OD [18] was 0.055 OD and the ELISA OD [19] was 0.093 OD. The ELISA OD [20] was 0.663 OD, the ELISA OD [21] was 0.07 OD and the ELISA OD [22] was 0.881 OD. It also gave an ELISA OD [24] of 0.287 OD, an ELISA OD [25] of 0.167 OD and an ELISA OD [27] of 0.083 OD. The ELISA OD [29] was 1.37 OD, the ELISA OD [30] was 0.092 OD and 0.074 OD and the ELISA OD [31] was 1.04 OD. For the same substance, the ELISA OD [32] was 0.056 OD and 0.073 OD, the ELISA OD [33] was 0.084 OD and the ELISA OD [34] was 1.37 OD.
In the case of PG16 (antibody), the ELISA OD [1] is reported as 0.332 OD, the ELISA OD [2] is reported as 0.248 OD and 0.287 OD and the ELISA OD [3] is reported as 0.158 OD. The ELISA OD [4] was 0.282 OD, the ELISA OD [35] was 0.168 OD and the ELISA OD [5] was 0.205 OD. It also gave an ELISA OD [6] of 0.817 OD, an ELISA OD [36] of 0.168 OD and an ELISA OD [7] of 0.083 OD. For the same substance, the ELISA OD [37] was 0.971 OD, the ELISA OD [8] was 0.476 OD and the ELISA OD [9] was 0.272 OD. The ELISA OD [10] was 0.069 OD, the ELISA OD [11] was 0.215 OD and 0.16 OD and the ELISA OD [38] was 0.244 OD. The ELISA OD [12] was 0.173 OD and 0.159 OD, the ELISA OD [13] was 0.141 OD and the ELISA OD [14] was 0.122 OD and 0.186 OD. For the same substance, the ELISA OD [15] was 0.085 OD, the ELISA OD [16] was 0.062 OD and the ELISA OD [17] was 0.088 OD. The ELISA OD [18] was 0.163 OD, the ELISA OD [19] was 0.265 OD and the ELISA OD [20] was 0.109 OD. The ELISA OD [21] was 0.053 OD, the ELISA OD [22] was 0.352 OD and the ELISA OD [23] was 0.288 OD. It also gave an ELISA OD [24] of 0.083 OD, an ELISA OD [25] of 0.063 OD and an ELISA OD [27] of 0.229 OD. For the same substance, the ELISA OD [29] was 0.12 OD, the ELISA OD [30] was 0.103 OD and 0.072 OD and the ELISA OD [31] was 0.103 OD. For the same substance, the ELISA OD [32] was 0.063 OD and 0.072 OD, the ELISA OD [33] was 0.12 OD and the ELISA OD [34] was 0.103 OD.

Source: US20150065381A1
